Measurements published in article PMC6820532.

Target: I-Aα^d chain fused to the human IgG1 Fc knob (non-zippered KIH-based BDC2.5mi/IA^g7, α chain) (mouse | human)
Assay: SDS stability on SDS-PAGE; 12% SDS-PAGE of the purified, co-expressed heterodimers; 0.83% SDS, left unboiled ('native') or boiled (100 °C for 5 min); fully denaturing with 20 mM β2-ME

A stoichiometry N of 1 was found for “BDC2.5mi peptide tethered to the I-Aβ^g7 chain fused to the human IgG1 Fc hole (non-zippered KIH-based BDC2.5mi/IA^g7, β chain) (Fc fusion)” in this work.
